Source: article PMC3477848 (Biochemistry, 2012)
Where two headings read alike, the source gives them in different places.

T1: Dpo4 (SsoDpo4, Y-family DNA polymerase) (Sulfolobus solfataricus, UniProt Q97W02 1-352)
T1 sequence: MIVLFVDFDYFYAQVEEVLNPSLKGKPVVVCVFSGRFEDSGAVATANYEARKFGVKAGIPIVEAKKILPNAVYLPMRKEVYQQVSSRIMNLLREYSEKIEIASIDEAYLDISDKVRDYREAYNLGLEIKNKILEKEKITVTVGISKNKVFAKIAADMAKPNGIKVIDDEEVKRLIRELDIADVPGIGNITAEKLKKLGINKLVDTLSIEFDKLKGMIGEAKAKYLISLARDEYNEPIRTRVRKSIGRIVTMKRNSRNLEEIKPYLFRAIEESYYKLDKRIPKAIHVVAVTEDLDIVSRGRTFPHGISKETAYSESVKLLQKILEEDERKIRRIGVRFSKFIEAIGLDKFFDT

B1: Dpo4, wild-type untagged, Y-family lesion bypass (repair) DNA polymerase of Sulfolobus solfataricus (enzyme)
chain: T1 sequence
B2: 37-nt hairpin primer-template, unlabeled (structured_DNA)
DNA: TTTTTTTTTTCCCGGGCCGGCGTTTCGCCGGCCCGGG

Assays:
[1] = target: the molecule itself; experiment: cross-linking
[2] = target: T1, Dpo4 (SsoDpo4, Y-family DNA polymerase); experiment: ITC
[3] = target: T1, Dpo4 (SsoDpo4, Y-family DNA polymerase); experiment: ITC; remark: listed apart in the source

Binder	stoichiometry N [1]	Ka [2] [M⁻¹]	Ka [3] [M⁻¹]
B1	2		
B2		652000	2.23e+06
